In experiment [1] the target is PEX14 16-80 (Homo sapiens) (UniProt O75381). Kind of experiment: SPR. Conditions: cited from earlier work.
The target is the same in experiment [2]. Kind of experiment: ITC. Conditions: cited from earlier work.
Experiment [3] addresses His-tagged transcriptional activation domain of the tumor suppressor protein p53 (UniProt P04637). Kind of experiment: solution-phase LSPR peak shift of nanoparticles (UV–vis); hTAD ([…]) immobilised by its His-tag on NTA-Ni AgDNP@Au nanobiosensors (~0.025 nM), NCBD (0.27 μM) added; 10 mM Tris, 30 mM NaCl, 0.025 wt % Tween 20, pH 7.5; near equilibrium (25 min).
For experiment [4] the target is unchanged. Kind of experiment: solution-phase LSPR peak shift of nanoparticles (UV–vis); hTAD ([…]) immobilised by its His-tag on NTA-Ni AgDNP@Au nanobiosensors (~0.025 nM), NCBD (0.27 μM) or BSA ([…]) added; 10 mM Tris, 150 mM NaCl, 0.025 wt % Tween 20, pH 7.5; near equilibrium (25 min).
Experiment [5] has the same target. Kind of experiment: solution-phase LSPR peak shift of nanoparticles (UV–vis); hTAD ([…]) immobilised by its His-tag on NTA-Ni AgDNP@Au nanobiosensors (~0.025 nM), NCBD (0.27 μM) added; 10 mM Tris, 10 mM NaCl, 0.025 wt % Tween 20, pH 7.5; nanoparticles aggregated after several minutes.

Sequence of PEX14 16-80 (Homo sapiens) (O75381 16-80): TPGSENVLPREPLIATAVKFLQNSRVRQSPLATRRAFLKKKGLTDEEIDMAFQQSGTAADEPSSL
Sequence of His-tagged transcriptional activation domain of the tumor suppressor protein p53 (P04637 whole entry, the tested form may be a part): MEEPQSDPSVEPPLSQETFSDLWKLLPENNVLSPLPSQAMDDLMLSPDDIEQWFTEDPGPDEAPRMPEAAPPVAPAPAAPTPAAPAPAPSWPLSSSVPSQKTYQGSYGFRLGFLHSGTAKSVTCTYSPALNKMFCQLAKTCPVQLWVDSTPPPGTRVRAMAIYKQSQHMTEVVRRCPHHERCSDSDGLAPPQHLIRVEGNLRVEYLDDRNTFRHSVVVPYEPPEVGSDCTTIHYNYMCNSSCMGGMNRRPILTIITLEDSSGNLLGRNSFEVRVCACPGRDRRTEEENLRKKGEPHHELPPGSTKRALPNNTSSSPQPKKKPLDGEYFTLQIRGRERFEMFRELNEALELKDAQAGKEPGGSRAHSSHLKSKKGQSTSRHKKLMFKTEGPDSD

On to PEX5 1-113 (from UniProt P50542), for which the dissociation constant Kd in experiment [1] was 0.087 µM; in experiment [2], 0.157 µM.
Turning to PEX5 W4 motif W4 (from UniProt P50542), the Kd in experiment [2] is 6.3 µM.
In the case of “nuclear receptor coactivator binding domain of the CREB-binding protein (from UniProt Q92793 1-2442) (domain or fragment)”, the second LSPR peak redshift (30 mM NaCl) in experiment [3] is 3.2 nm. In experiment [4], the second LSPR peak redshift (150 mM NaCl) is 1 nm. The LSPR peak redshift after addition of NCBD (10 mM NaCl) in experiment [5] came out at 6.2 nm.
